Data published in patent US11739132B2, “Separation moieties and methods of use thereof” (Werewolf Therapeutics, Inc., priority 2019, dated 2023).
“Also recorded” adds a separate entry of the source. One block for each substance: values may come before it. No end group written: not given here.

Experiments:
Factor Xa = target: T1, Factor Xa (Homo sapiens, UniProt P00742); experiment: 30-mer library counter-screening MSP-MS, Factor Xa; type: biochemical
T1 construct: purchased R&D Systems (Bio-techne) 1063-SE-010
T1 sequence (P00742 235-488 limits assumed): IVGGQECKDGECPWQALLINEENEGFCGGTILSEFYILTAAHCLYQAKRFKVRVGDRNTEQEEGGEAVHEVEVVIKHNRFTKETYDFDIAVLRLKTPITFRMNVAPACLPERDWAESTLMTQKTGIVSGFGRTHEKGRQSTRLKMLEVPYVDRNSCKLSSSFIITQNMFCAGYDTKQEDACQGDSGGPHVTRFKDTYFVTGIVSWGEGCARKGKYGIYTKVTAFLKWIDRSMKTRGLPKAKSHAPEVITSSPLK
T1 sequence (P00742 41-179 partner limits assumed): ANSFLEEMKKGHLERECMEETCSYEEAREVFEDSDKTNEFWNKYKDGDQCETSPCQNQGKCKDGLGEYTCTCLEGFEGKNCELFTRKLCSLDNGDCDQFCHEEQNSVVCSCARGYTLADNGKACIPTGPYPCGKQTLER
Protocol: (§1) Protease specificity screening was performed using Multiplexed Substrate Profiling by Mass Spectrometry (MSP-MS), the method described in, e.g. O'Donoghue A. J. et al., Nat Methods., 2012; 9(11): 1095-1100. This method employs a physico-chemically diverse peptide library as substrates for proteases, and reactions are monitored over time with mass spectrometric detection of cleaved products. The resulting cleavages are assessed for specific cleavage in the enzyme-treated sample by comparison with results from a no-enzyme control incubation.
(§2) Enzymes were activated and assayed following the manufacturer's recommendations.
Factor Xa was assayed at 4.7 nM enzyme, at 37° C. in the manufacturer recommended buffer: 50 mM TRIS, 10 mM CaCl2, 150 mM NaCl, pH 7.5.
(§3) Counter-screening was performed against the enzymes Thrombin, Factor Xa and Hepsin using this library as well, and for calibration of activity, a positive-control peptide bearing favorable motifs for these enzymes was also designed (ALU30-19).
Catalytic efficiency (kcat/KM) estimations were used to rank the top cleaved substrates in the MSP-MS reaction. Peptides were quantified by mass spectrometric label-free quantitation from the MS1 precursor ion peak areas for each peptide. Enzyme progress curves were modeled from six-time point measurements in GraphPad Prism. […]

CTSL1 [1] = target: T2, CTSL1 (Homo sapiens, UniProt P07711); experiment: In vitro FRET kinetics with CTSL1; type: biochemical
T2 sequence (P07711 114-333): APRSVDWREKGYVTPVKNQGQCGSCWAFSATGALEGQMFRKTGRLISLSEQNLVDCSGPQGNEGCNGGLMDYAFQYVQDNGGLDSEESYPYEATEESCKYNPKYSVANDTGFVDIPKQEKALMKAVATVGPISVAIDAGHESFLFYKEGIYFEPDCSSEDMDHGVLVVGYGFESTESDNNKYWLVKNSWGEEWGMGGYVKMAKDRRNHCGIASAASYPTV
Protocol: as §2
(§4) For CTSL1, enzyme was activated by pre-incubation in assay buffer (50 mM MES, 5 mM DTT, 1 mM EDTA, pH=6) for 15 min. MSP-MS reactions were then started with the mixing of enzyme and substrate, at final CTSL1 concentration of 0.04 ng/μl (0.77 nM), and peptide substrate concentration at 500 nM.
Additional in vitro kinetic experiments were performed to characterize a new candidate motif for CTSL1 enzyme; the CTSL1_2 motif has the sequence […] (SEQ ID NO: 199). […] Yet, initial experiments with the CTSL1_2 FRET substrate were inconclusive, possibly due to artifacts in the FRET assay; therefore, a new FRET peptide construct was designed with the 9-mer sequence […] (SEQ ID NO: 236).
All of the FRET substrates used in these studies have a methoxycoumarin (Mca) fluorophore and dinitrophenyl-lysyl (Dnp) quencher pair at the N- and C-termini of the sequences, respectively.

Cathepsin K (CTSK) = target: T3, Cathepsin K (CTSK) (Homo sapiens, UniProt P43235); experiment: Counter-screening of CTSL1 FRET substrates with Cathepsin K; type: biochemical; conditions: specific activity
T3 sequence (P43235 115-329): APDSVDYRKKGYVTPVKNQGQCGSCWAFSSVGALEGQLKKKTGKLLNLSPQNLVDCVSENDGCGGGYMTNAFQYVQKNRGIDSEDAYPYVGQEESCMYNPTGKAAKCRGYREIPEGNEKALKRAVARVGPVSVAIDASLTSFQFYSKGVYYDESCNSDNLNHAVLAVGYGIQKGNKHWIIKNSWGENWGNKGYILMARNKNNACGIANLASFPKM
Protocol: Counter-screening of CTSL1_1 and CTSL1_2 was performed with the enzyme Cathepsin K (CTSK). […] For comparison, the specific activity for reference substrates such as Z-LR-AMC and Z-FR-AMC is 15,000-25,000 pmol/min/μg, with the average value indicated by a dashed line in FIG. 47.

CTSL1 [2] = target: T2, CTSL1; experiment: 30-mer tandem linker library MSP-MS, CTSL1; type: biochemical
Protocol: as §1, §2, §4
This hypothesis was tested in the context of the hybrid linker design experiment. Shown in FIG. 46 are the results of cleavage of two matched 30-mer peptides with the following sequences:
(§5) To analyze the catalytic efficiency of candidate tandem linker designs, a tailored library approach using MSP-MS was applied. For the tailored library, a set of nineteen synthetic peptides, 30 amino acids in length (30-mers), were designed to test whether sequence context affects the efficiency of cleavage. Peptides were assayed in a multiplex format together as a substrate library with individual recombinant enzymes, using MSP-MS. For quantitative comparisons, kinetic analysis was performed over a time course, and results are reported either as a catalytic efficiency kcat/KM for well-behaved first-order kinetics, or as observed rates as kobs for more complex kinetic behavior.
(§6) Catalytic efficiency (kcat/KM) estimations were used to rank the top cleaved substrates in the MSP-MS reaction. Peptides were quantified by mass spectrometric label-free quantitation from the MS1 precursor ion peak areas for each peptide. Enzyme progress curves were modeled from six-time point measurements in GraphPad Prism. Data were fitted using non-linear least squares fitting to the first order kinetics equation:
(§7) [formula] where Y=percent product formation or substrate consumption, and t=time. The observed rate is a function of the enzyme concentration [E0], and an observed catalytic efficiency (kcat/KM) in units M^−1s^−1

Hepsin = target: T4, Hepsin (Homo sapiens, UniProt P05981); experiment: 30-mer library counter-screening MSP-MS, Hepsin; type: biochemical
T4 construct: purchased R&D Systems (Bio-techne) 4776-SE
T4 sequence (P05981 163-417 limits assumed): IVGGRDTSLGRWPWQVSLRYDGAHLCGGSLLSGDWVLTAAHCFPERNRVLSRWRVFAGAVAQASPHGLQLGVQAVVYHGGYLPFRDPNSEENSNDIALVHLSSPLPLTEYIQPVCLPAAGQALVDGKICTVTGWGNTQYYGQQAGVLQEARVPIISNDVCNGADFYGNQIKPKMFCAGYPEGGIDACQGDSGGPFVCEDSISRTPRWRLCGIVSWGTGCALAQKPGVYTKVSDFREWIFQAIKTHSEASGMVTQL
T4 sequence (P05981 1-162 partner limits assumed): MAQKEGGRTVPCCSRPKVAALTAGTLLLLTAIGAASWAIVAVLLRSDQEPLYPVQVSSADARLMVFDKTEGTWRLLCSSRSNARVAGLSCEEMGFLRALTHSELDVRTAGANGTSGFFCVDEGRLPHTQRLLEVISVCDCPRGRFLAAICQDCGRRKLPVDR
Protocol: as §1, §2
Hepsin was pre-activated overnight at 37° C. in the manufacturer recommended buffer: 100 mM TRIS, 10 mM CaCl2, 150 mM NaCl, 0.05% Brij-35, pH 8.0. Activity was measured with 2.4 or 24 nM enzyme in the buffer: 50 mM TRIS HCl at pH 7.4.
as §3, §6, §7
(§8) Counter-screening with Thrombin, Factor Xa and Hepsin was also performed following the same analysis. The library peptide Alu30-19 was designed to include authentic sites for each enzyme, for comparison of overall cleavage efficiency as well as cleavage site specificity within each motif. The substrate designed for Factor Xa has the motif FNPR|TFGS (SEQ ID NO: 248), derived from the Factor Xa cleavage site in Thrombin. The substrate motif for Thrombin was FPR|, a common tool substrate motif. The substrate motif for hepsin was RKRR|GSRG (SEQ ID NO: 249) from filaggrin.

[3] = system: full set of five targeted enzymes; thrombin, Factor Xa, and hepsin; experiment: 30-mer tandem linker design: comparison of cleavage efficiencies across enzymes; type: biochemical, human
Text: To generate the most efficient tandem linker, the cleavage efficiencies for each of the targeted enzymes toward the 30-mer library peptides can be compared (FIG. 64).
Replacement of the ADAM17_2 motif with ADAM17_i may also enhance activity toward FAP-alpha and CTSL1, even if ADAM17 activity enhancement is minor, and hepsin susceptibility would be predicted to be reduced.

MMP9 = target: T5, MMP9 (Homo sapiens, UniProt P14780); experiment: 30-mer tandem linker library MSP-MS, MMP9; type: biochemical
T5 construct: purchased R&D Systems (Bio-techne) 911-MP-010
T5 sequence (P14780 107-707 limits assumed): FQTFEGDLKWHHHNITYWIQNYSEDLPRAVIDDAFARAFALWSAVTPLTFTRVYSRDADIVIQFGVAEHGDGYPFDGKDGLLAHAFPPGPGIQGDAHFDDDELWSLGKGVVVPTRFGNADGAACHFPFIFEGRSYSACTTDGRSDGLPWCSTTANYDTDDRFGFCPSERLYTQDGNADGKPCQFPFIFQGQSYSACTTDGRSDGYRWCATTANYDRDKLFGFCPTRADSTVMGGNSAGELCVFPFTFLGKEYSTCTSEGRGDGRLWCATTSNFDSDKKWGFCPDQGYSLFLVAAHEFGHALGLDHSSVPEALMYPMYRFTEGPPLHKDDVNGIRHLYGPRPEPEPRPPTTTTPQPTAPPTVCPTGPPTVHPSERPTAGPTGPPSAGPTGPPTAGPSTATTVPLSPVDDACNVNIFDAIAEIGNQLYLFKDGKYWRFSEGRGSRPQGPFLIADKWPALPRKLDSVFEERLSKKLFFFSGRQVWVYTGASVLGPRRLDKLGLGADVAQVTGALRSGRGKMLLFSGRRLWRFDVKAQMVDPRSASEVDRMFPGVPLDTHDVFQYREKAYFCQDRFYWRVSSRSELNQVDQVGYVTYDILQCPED
Protocol: as §1, §2
MMP9 was activated by incubation with 1 mM p-amino phenyl mercuric acetate (prepared from a stock at 100 mM in DMSO) for 24h at 37° C. in activation buffer: 50 mM TRIS HCl (pH 7.5), 10 mM CaCl2, 150 mM NaCl, 0.05% Brij35. The final enzyme concentration used for fluorescence assays was 2.5 nM.
To analyze the catalytic efficiency of candidate tandem linker designs, a tailored library approach using MSP-MS was applied. […] For quantitative comparisons, kinetic analysis was performed over a time course, and results are reported either as a catalytic efficiency kcat/KM for well-behaved first-order kinetics, or as observed rates as kobs for more complex kinetic behavior. […]

FAPα = target: T6, FAPα (Homo sapiens, UniProt Q12884); experiment: 30-mer tandem linker library MSP-MS, FAPα; type: biochemical
T6 construct: purchased R&D Systems (Bio-techne) 930-ADB-010
T6 sequence (Q12884 1-760): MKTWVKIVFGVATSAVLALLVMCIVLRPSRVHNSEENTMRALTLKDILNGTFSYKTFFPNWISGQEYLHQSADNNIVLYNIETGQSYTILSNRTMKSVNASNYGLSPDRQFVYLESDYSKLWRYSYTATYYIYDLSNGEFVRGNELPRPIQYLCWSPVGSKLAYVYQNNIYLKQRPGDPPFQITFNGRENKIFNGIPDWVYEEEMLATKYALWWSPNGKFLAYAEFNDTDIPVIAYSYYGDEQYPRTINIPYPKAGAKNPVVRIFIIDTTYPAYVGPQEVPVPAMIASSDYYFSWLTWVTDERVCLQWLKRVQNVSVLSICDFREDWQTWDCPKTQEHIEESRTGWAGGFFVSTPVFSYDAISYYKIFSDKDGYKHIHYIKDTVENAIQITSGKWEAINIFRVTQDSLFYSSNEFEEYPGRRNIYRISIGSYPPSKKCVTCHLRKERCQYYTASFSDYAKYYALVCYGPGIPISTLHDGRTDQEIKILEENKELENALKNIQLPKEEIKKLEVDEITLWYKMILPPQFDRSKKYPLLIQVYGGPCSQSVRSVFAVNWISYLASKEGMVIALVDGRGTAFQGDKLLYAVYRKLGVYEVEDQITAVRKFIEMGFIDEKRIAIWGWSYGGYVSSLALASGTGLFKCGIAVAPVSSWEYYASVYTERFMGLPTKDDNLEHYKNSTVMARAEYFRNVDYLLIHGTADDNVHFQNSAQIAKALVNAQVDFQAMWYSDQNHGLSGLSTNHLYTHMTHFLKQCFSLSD
Protocol: as §1, §2
FAPα activity was tested with fluorescence detection using a generic Z-GP-AMC substrate. For FRET assays, the final enzyme concentration was 5 nM and the buffer was 50 mM TRIS HCl, 1 M NaCl, 1 mg/mL BSA, pH 7.5.
as §5, §6, §7

Thrombin = target: T7, Thrombin (Homo sapiens, UniProt P00734); experiment: 30-mer library counter-screening MSP-MS, Thrombin; type: biochemical
T7 construct: purchased R&D Systems (Bio-techne) 2196-SE-200
Protocol: as §1, §2
Thrombin was activated following the manufacturer's recommended conditions by pre-incubation with the enzyme with thermolysin for 15 min, and then the thermolysin was quenched with 1,10 phenanthroline treatment. Activated thrombin was assayed at 1.2 nM in activation buffer: 50 mM TRIS HCl, 10 mM CaCl2, 150 mM NaCl, 0.05% (w/v) Brij-35, pH 7.5.
as §3, §6, §7, §8

[4] = system: activated T cells relative to NK cells; conditions: cited from earlier work
[5] = cited from earlier work
[6] = matched 30-mer peptides SEQ ID NO: 207 (CTSL1_1) and 219 (CTSL1_2)

Relative efficiency of 30-mer peptide cleavage by Factor Xa (Factor Xa): significant cleavage
Substance: KGGALFKSSFPGGPAGIGPLAQKLKSSGGS [Alu30-5]

Substance: ALFFSSPP (also: FRET fluorophore and quencher) [CTSL1_2]
Cleavage of 8-mer FRET substrate by CTSL1 (CTSL1 [1]; 8-mer FRET peptide, Mca/Dnp pair): not cleaved | Cleavage of 9-mer FRET substrate by CTSL1 (CTSL1 [1]; 9-mer sequence ALFFSSPPS (SEQ ID NO: 236)): comparable catalytic efficiency to the CTSL1_1 motif; also recorded: cleaved as a 9-mer FRET peptide | Cleavage by CTSK, lower level than the CTSL1_1 substrate (Cathepsin K (CTSK)): 15 × | Relative efficiency of 30-mer peptide cleavage by CTSL1 (CTSL1 [2]): rapidly cleaved | +1 site product formation by CTSL1 (CTSL1 [2]; [6]): more rapidly formed | −1 site product formation by CTSL1 (CTSL1 [2]; [6]): did not | Relative efficiency of cleavage by hepsin (Hepsin): cleaved at a much slower rate than CTSL1_1

Time to complete degradation by Factor Xa (Factor Xa): < 5 min | Time to cleavage at all three motifs by hepsin (Hepsin): ≤ 15 min | Apparent catalytic efficiency, hepsin (Hepsin; order of magnitude): ~10^5 M^−1s^−1
Substance: SGGFPRSGGSFNPRTFGSKRKRRGSRGGGG [Alu30-19, reference compound]

Substance: SGPLAQKLKSSGPAGLYAQALFKSSFPGSK [Alu30-16]
Activity toward the full set of five targeted enzymes [3]: generally high activity | Susceptibility to thrombin, Factor Xa, and hepsin [3]: lowest susceptibility

Relative efficiency of 30-mer substrate degradation/cleavage by MMP9 (MMP9): more efficient than the Alu30-1 peptide | Relative efficiency of 30-mer peptide degradation by FAPα (FAPα): efficiently cleaved | Relative efficiency of 30-mer peptide cleavage by thrombin (Thrombin): less susceptible to thrombin
Substance: RGSGGGPAGLYAQGSGGGPAGLYAQGGSGK [Alu30-2]

Substance: Bay 50-4798: IL-2 variant IL2/N88R, clinically tested as a low-toxicity version of IL-2
Selectivity of stimulated proliferation [4]: selectively stimulate the proliferation of activated T cells relative to NK cells | Levels of CD4+CD25+ T cells in clinical trials ([5]; cancer patients and HIV patients): increased the levels of CD4+CD25+ T cells | Safety and tolerability in clinical trials ([5]; human, in vivo): considerably safer and more tolerable than aldesleukin
